Target: T1, recombinant His-tagged wild-type ZPR9 (UniProt Q969S3 1-477)
T1 chain: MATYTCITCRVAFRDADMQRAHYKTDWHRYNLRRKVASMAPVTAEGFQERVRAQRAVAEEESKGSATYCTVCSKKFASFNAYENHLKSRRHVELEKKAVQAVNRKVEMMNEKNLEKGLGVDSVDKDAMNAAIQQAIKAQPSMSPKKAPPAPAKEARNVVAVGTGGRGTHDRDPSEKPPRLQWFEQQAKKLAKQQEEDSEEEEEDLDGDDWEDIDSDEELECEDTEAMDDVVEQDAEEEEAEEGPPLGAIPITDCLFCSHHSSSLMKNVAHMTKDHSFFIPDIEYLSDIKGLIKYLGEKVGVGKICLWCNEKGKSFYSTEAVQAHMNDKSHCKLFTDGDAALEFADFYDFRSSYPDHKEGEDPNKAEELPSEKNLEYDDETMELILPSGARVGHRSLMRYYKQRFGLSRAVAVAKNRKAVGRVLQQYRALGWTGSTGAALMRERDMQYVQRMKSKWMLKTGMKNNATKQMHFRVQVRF
Test: ITC

B1: recombinant His-tagged wild-type MPK38 (enzyme)
chain: MKDYDELLKYYELYETIGTGGFAKVKLACHVLTGEMVAIKIMDKNALGSDLPRVKTEIDALKSLRHQHICQLYHVLETKNKIFMVLEYCPGGELFDYIISQDRLSEEETRVVFRQILSAVAYVHSQGYAHRDLKPENLLFDENHKLKLIDFGLCAKPKGNKDYHLQTCCGSLAYAAPELIQGKSYLGSEADVWSMGILLYVLMCGFLPFDDDNVMALYKKIMRGKYEVPKWLSPSSILLLQQMLQVDPKKRISMRNLLNHPWVMQDYSCPVEWQSKTPLTHLDEDCVTELSVHHRSSRQTMEDLISSWQYDHLTATYLLLLAKKARGKPARLQLLSFSCGTASTTPKSKNLSLEDMSTSDDNCVAGLIDYELCEDKLLAPKTPQVTKHLAESNHAASKSPAPGVRRAVANKLMDKENVCTPKSSVKNEEQFVFSEPKIPVSKNQYKREIPASPTRFPTPAKARAQCLREAPVRTPGNSAGADTLTTGVISPERRCRSMDVDLNQAHMEDTPKKKGTNVFGSLERGLDKVLTALTRNKKKGSARDGPRKRKLHYNVTTTRLVNPDQLLSEIMAILPKKNVDFVQKGYTLKCQTQSDFGKVTMQFELEVCQLQRPDVVGIRRQRLKGDAWVYKRLVEDILSGCKM
Ka: 39100 M⁻¹

Source: paper PMC5307367 (2017)
